Patent publication US10358663B2, “Method of production of 2,4-dihydroxybutyric acid” (ADISSEO FRANCE S.A.S., priority 2010, dated 2019)
Where a chain is given by its changes, count along the chain named. Names may count otherwise.

Legend:
Type in all cases: biochemical, Escherichia coli
Settings in all cases: other: malate, pH 7.5, 30° C., average of at least two independent experiments
[1] = substrate: O=C(O)C[C@H](O)C(=O)O; assay: Malate kinase assay, LysC E119P
Protocol: (§1) Enzymatic assay: Aspartate or malate kinase activities were assayed by coupling ADP production in the kinase reactions to NADH oxidation in the presence of phosphoenolpyruvate, pyruvate kinase, and lactate dehydrogenase.
(§2) Aspartate (or Malate) Kinase aspartate (or malate)+ATP→4-phospho-(L)-aspartate (or 4-phospho-(L)-malate)+ADP
(§3) The assay mixture contained 50 mM Hepes (pH 7.5), 50 mM KCl, 5 mM MgCl2, 0.24 mM NADH, 0.96 mM ATP, 0.96 mM PEP, 9 μg/mL of lactate dehydrogenase (Sigma, L2500), 12.4 μg/mL pyruvate kinase (Sigma, P1506), and appropriate amounts of purified aspartate (malate) kinase. Reactions were started by adding 50 mM (L)-aspartate or (L)-malate. Enzymatic assays were carried out at 30° C. in 96-well flat bottomed microtiter plates in a final volume of 250 μL. The reactions were followed by the characteristic absorption of NADH at 340 nm in a microplate reader (BioRad 680XR).
(§4) Mutant enzymes were expressed, purified and tested for aspartate and malate kinase activity as described in Example 1.

[2] = substrate: O=C(O)C[C@H](O)C(=O)O; assay: Malate kinase assay, LysC E119N
Protocol: as §1, §2, §3, §4

[3] = substrate: O=C(O)C[C@H](O)C(=O)O; assay: Malate kinase assay, LysC E119S
Protocol: as §1, §2, §3, §4

[4] = substrate: O=C(O)C[C@H](O)C(=O)O; assay: Malate kinase assay, LysC E119C
Protocol: as §1, §2, §3, §4

[5] = substrate: O=C(O)C[C@H](O)C(=O)O; assay: Malate kinase assay, LysC E119Q
Protocol: as §1, §2, §3, §4

[6] = substrate: O=C(O)C[C@H](O)C(=O)O; assay: Malate kinase assay, LysC E119T
Protocol: as §1, §2, §3, §4

[7] = substrate: O=C(O)C[C@H](O)C(=O)O; assay: Malate kinase assay, LysC E119V
Protocol: as §1, §2, §3, §4

[8] = substrate: O=C(O)C[C@H](O)C(=O)O; assay: Malate kinase assay, LysC E119G
Protocol: as §1, §2, §3, §4

B1: E. coli aspartate kinase LysC variant E119P, SEQ ID NO: 18 (Escherichia coli K-12; E119P) (protein)
chain: MSEIVVSKFGGTSVADFDAMNRSADIVLSDANVRLVVLSASAGITNLLVALAEGLEPGERFEKLDAIRNIQFAILERLRYPNVIREEIERLLENITVLAEAAALATSPALTDELVSHGPLMSTLLFVEILRERDVQAQWFDVRKVMRTNDRFGRAEPDIAALAELAALQLLPRLNEGLVITQGFIGSENKGRTTTLGRGGSDYTAALLAEALHASRVDIWTDVPGIYTTDPRVVSAAKRIDEIAFAEAAEMATFGAKVLHPATLLPAVRSDIPVFVGSSKDPRAGGTLVCNKTENPPLFRALALRRNQTLLTLHSLNMLHSRGFLAEVFGILARHNISVDLITTSEVSVALTLDTTGSTSTGDTLLTQSLLMELSALCRVEVEEGLALVALIGNDLSKACGVGKEVFGVLEPFNIRMICYGASSHNLCFLVPGEDAEQVVQKLHSNLFE
- Km [1]: 19.0 mM
- Vmax [1]: 0.71 µmol/mg/min

B2: E. coli aspartate kinase LysC variant E119N, SEQ ID NO: 16 (Escherichia coli K-12; E119N) (protein)
chain: B1 chain with P119N
- Km [2]: 27.1 mM
- Vmax [2]: 0.13 µmol/mg/min

B3: E. coli aspartate kinase LysC variant E119S, SEQ ID NO: 22 (Escherichia coli K-12; E119S) (protein)
chain: B1 chain with P119S
- Km [3]: 15.7 mM
- Vmax [3]: 0.83 µmol/mg/min

B4: E. coli aspartate kinase LysC variant E119C, SEQ ID NO: 12 (Escherichia coli K-12; E119C) (protein)
chain: B1 chain with P119C
- Km [4]: 19.7 mM
- Vmax [4]: 0.97 µmol/mg/min

B5: E. coli aspartate kinase LysC variant E119Q, SEQ ID NO: 20 (Escherichia coli K-12; E119Q) (protein)
chain: B1 chain with P119Q
- Km [5]: 39.9 mM
- Vmax [5]: 0.01 µmol/mg/min

B6: E. coli aspartate kinase LysC variant E119T, SEQ ID NO: 24 (Escherichia coli K-12; E119T) (protein)
chain: B1 chain with P119T
- Km [6]: 26.8 mM
- Vmax [6]: 0.33 µmol/mg/min

B7: E. coli aspartate kinase LysC variant E119V, SEQ ID NO: 26 (Escherichia coli K-12; E119V) (protein)
chain: B1 chain with P119V
- Km [7]: 39.7 mM
- Vmax [7]: 0.29 µmol/mg/min

B8: E. coli aspartate kinase LysC variant E119G, SEQ ID NO: 14 (Escherichia coli K-12; E119G) (protein)
chain: B1 chain with P119G
- Km [8]: 16.0 mM
- Vmax [8]: 0.49 µmol/mg/min
